Data reported in patent US20110319338A1, “PEPTIDES THAT BIND EUKARYOTIC TRANSLATION INITIATION FACTOR 4E” (The Board of Regents of the University of Texas System, priority 2008, published 2011).
Square brackets hold non-standard residues; d marks the D form. Ends that are not written are not given here.

Key:
[1] = target: T1, eIF4E in SKOV3+GnRH-RI cells (Homo sapiens, UniProt P06730); experiment: Pull-down of peptide from lysates of peptide-treated cells, Western blot with eIF4E antibody; type: cell-based; conditions: 10 micromoles per liter, 24 hours
T1 construct: endogenous in cells; host or cells: SKOV3 cells stably transfected with human GnRH-RI (eIF4E itself is not transfected)
T1 sequence (P06730 whole entry): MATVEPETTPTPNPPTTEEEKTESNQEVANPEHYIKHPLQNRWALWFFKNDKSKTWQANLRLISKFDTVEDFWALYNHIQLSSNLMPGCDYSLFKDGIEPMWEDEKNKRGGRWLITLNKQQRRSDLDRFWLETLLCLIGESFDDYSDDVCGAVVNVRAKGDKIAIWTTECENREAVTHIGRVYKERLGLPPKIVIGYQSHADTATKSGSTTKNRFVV
Description: FIGS. 8A-8D. Effect of [DLys6] GnRH-4EBP1 peptide in SKOV3 cells stably expressing GnRH-RI. (FIG. 8A) Western blot analysis of GnRH-RI in parental SKOV3 cells and SKOV3 cells transfected with GnRH-RI. In (FIG. 8B), SKOV3+GnRH-RI cells were treated with biotinylated peptides at a final concentration of 10 micromoles per liter or incubated without peptide. At 24 hours after treatment, lysates were prepared from cells. Peptide was pulled-down using streptavidin-agarose. Precipitates and supernatants were analyzed by Western blot using eIF4E antibody. (FIG. 8C) parental SKOV3, SKOV3+GnRH-RI and ES-2 cells were treated with the indicated peptides (10 micromoles per liter) or incubated without peptide. At 24 hours after treatment, lysates were prepared from cells. Immunoprecipitation was performed using eIF4E antibody, and Western blot of precipitates was performed using eIF4G antibody. Western blot of whole cell lysates of treated cells was performed using antibodies to eIF4G, eIF4E and actin. (FIG. 8D) TUNEL-staining of parental SKOV3 and SKOV3+GnRH-RI cells at 3 days following treatment with peptide at a final concentration of 30 micromoles per liter.
Immunoprecipitation (IP) and Western blotting. Biotinylated peptides were incubated with 250 micrograms of cell lysate at a final concentration of 3 micromoles per liter for 6 hours at 4° C. […]

ES-2-GFP cells = experiment: Mouse i.p. xenograft model of epithelial ovarian cancer; type: in vivo
Description: FIGS. 4A-4C. Anti-tumor activity of [DLys6]GnRH-4EBP1-WT peptide in a xenograft model of EOC. Female nude mice were inoculated i.p. with one million ES-2-GFP cells. At Day 9 after tumor cell inoculation, one group of mice (n=5) was sacrificed (pre-treatment). At Day 9, other groups of mice were administered by i.p. injection with saline (n=11), [DLys6]GnRH (n=11) or [DLys6]GnRH-4EBP1-WT (n=11) at a dose of 3.0 nanomoles per gram body weight Saline or peptide was administered every 2 days thereafter for 11 days (6 doses in total), and mice were sacrificed on Day 20. (FIG. 4A) Visualization under a fluorescence stereoscope of i.p. tumors in pre-treatment mice (at Day 9) including implants on the omentum (ome), and in mice treated with saline, with agonist alone and with [DLys6]GnRH-4EBP1-WT (at Day 20). (FIG. 4B) Hematoxylin eosin-stained sections of tissues of pre-treatment mice (at Day 9) and of saline- and peptide-treated mice (at Day 20). Tumors attached to the omentum extensively involved the pancreas in saline- and agonist-treated mice. Also shown are tumors attached to the broad ligament and mesentery. Bar, 200 micrometers. (FIG. 4C) Quantification of i.p. tumor burden in pre-treatment and treated mice that completed the regimen, expressed as the average percent of area of fluorescence within the abdominal cavity in captured images, and volume of ascites. Median values of tumor burden and ascites volume for each group and statistical significance of differences between groups are indicated.
Animal Studies. Animal studies were approved by the Institutional Animal Care and Use Committee. The ES-2 cell line stably expressing enhanced green fluorescent protein (ES-2-GFP) has been described in previous work (Hara et al., 2007). Four-week-old female nude mice were inoculated i.p. at one site in the lower abdomen with 10^6 ES-2-GFP cells. At Day 9 after tumor cell inoculation, one group of mice (n=5) were killed by CO2 asphyxiation. At Day 9, other groups of mice were administered by i.p. injection with 200 microliters of phosphate-buffered saline (PBS) (n=11), [DLys6]GnRH (n=11) or [DLys6]GnRH-4EBP1-WT peptide (n=11) at a dose of 3.0 nanomoles per gram body weight. Peptides were suspended in PBS and administered at a volume of 200 microliters. PBS or peptide was administered every 2 days thereafter for 11 days (6 doses in total). Mice were sacrificed on Day 20, and ascites harvested. Tumors were visualized under a Leica MZML III fluorescence stereomicroscope equipped with mercury lamp power supply and green fluorescent protein (GFP) filter set. Tumor burden was quantified by measuring areas of fluorescence signals within the abdominal cavity in captured images by using Image Pro Plus 5.0 software (Media Cybernetics, Bethesda, Md.). Slides of paraffin-embedded tissues collected from mice were stained with hematoxylin-eosin. TUNEL-staining of tissue sections was performed using the in situ cell death detection kit (Roche).
To determine the efficacy of [DLys6]GnRH-4EBP1-WT peptide in vivo, a mouse i.p. xenograft model was used that was established from an ES-2 cell line stably expressing GFP (Hara et al., 2007). This model mimics the typical behavior of epithelial ovarian cancer, including i.p. dissemination and ascites formation. This example comprised three treatment groups of mice i) saline, ii) [DLys6]GnRH agonist, and iii) [DLys6]GnRH-4EBP1-WT, where sample size of each group was n=11. The first dose of peptide or saline was administered i.p. to mice at Day 9 after tumor cell inoculation. At Day 9, no ascites had yet formed but tumors had established on the omentum, broad ligament and mesentery which are common sites of ovarian cancer cell attachment (FIGS. 4A,B). A schedule in which peptide was administered every 2 days was chosen, based on the studies of peptide stability in serum (FIG. 6).
Based on studies of other agonist conjugates in xenograft models (19-21), a peptide dose of 3.0 nanomoles per gram body weight was used. […]

[2] = drop-out mice, individual animals

[DLys6]GnRH: GnRH agonist with a D-amino acid substitution at position 6; GnRH-RI-targeting moiety (QHWSY[dK]LRPG; not fully specified (residue 1, C-terminus); ends and bridges not checked)
binding of peptide to eIF4E in treated cells [1]: neither mutant peptide nor [DLys6]GnRH alone bound eIF4E | Ascites volume (ES-2-GFP cells; [2]): 8.9 mL | Percent i.p. tumor burden (ES-2-GFP cells; [2]): 40.9% | i.p. tumor burden, percent of the abdominal cavity (mean) (ES-2-GFP cells; mice that completed regimen, Day 20, 3.0 nanomoles per gram body weight i.p. every 2 days, 6 doses): 56.4% | Drop-outs (euthanized prior to completion due to morbidity related to ascites accumulation) (ES-2-GFP cells; mouse, in vivo): 1 | Mice euthanized, day (ES-2-GFP cells; mouse, in vivo): n = 1, day 16 | day of death before completing treatment regimen (ES-2-GFP cells; mouse, in vivo): 17 days | Deaths (died before completing treatment regimen) (ES-2-GFP cells; of 11 mice per group): 2
